Substrate in series [1]: O=C(O)C(=O)Cc1ccccc1
The series can be described thus: cells, lysate or membranes. The settings on record: cell extract from aerobic ethanol-limited chemostat culture, phenylalanine as nitrogen source.

Substrate in series [2]: O=C(O)C(=O)Cc1ccccc1
The series can be described thus: decarboxylase activity, cell extract of decarboxylase-null yeast, Michaelis-Menten. The series is classed as biochemical, Saccharomyces kudriavzevii. The settings on record: cell extract from aerobic ethanol-limited chemostat culture, phenylalanine as nitrogen source.

B1: ScAro10p (Saccharomyces cerevisiae S288C) (protein)
chain: MAPVTIEKFVNQEERHLVSNRSATIPFGEYIFKRLLSIDTKSVFGVPGDFNLSLLEYLYSPSVESAGLRWVGTCNELNAAYAADGYSRYSNKIGCLITTYGVGELSALNGIAGSFAENVKVLHIVGVAKSIDSRSSNFSDRNLHHLVPQLHDSNFKGPNHKVYHDMVKDRVACSVAYLEDIETACDQVDNVIRDIYKYSKPGYIFVPADFADMSVTCDNLVNVPRISQQDCIVYPSENQLSDIINKITSWIYSSKTPAILGDVLTDRYGVSNFLNKLICKTGIWNFSTVMGKSVIDESNPTYMGQYNGKEGLKQVYEHFELCDLVLHFGVDINEINNGHYTFTYKPNAKIIQFHPNYIRLVDTRQGNEQMFKGINFAPILKELYKRIDVSKLSLQYDSNVTQYTNETMRLEDPTNGQSSIITQVHLQKTMPKFLNPGDVVVCETGSFQFSVRDFAFPSQLKYISQGFFLSIGMALPAALGVGIAMQDHSNAHINGGNVKEDYKPRLILFEGDGAAQMTIQELSTILKCNIPLEVIIWNNNGYTIERAIMGPTRSYNDVMSWKWTKLFEAFGDFDGKYTNSTLIQCPSKLALKLEELKNSNKRSGIELLEVKLGELDFPEQLKCMVEAAALKRNKK
Usually Km stands for the concentration of substrate that gives half-maximal velocity. For B1, in series [1], the Km was 150 ± 10 µM.

B2: SkAro10p (Saccharomyces kudriavzevii IFO 1802) (protein)
chain: MTPVTINTFVNQKEPHLVSNELATISFGEYIFRRLLSTGTKSVFGVPGDFNLSLLEYLYAPSVESAGLKWIGTCNELNAAYAADGYSRYSNNIGCLVTTFGVGELSALNGVAGSFAENVKVLHIVGVAKSIDSRSDNFRDRNMHHLVPQLHGSNFKGPNHKVYHDMVKDRVACSVAYLEDIETACDQVDNVIRDIYKYSKPGYIFVPADFADMSVTCENLINVPHISQQDCITYPSQIQLFDILDRITSWMYSSKTPAILGDVLTDRYGVSEILNKLIYATGIWNFSTVMGKSVIDEANPKYMGQYNGKEGLRQVYEHFESCDLVLHFGVDINEINNGHYTFTYKPNAKIIQFHPNYIRFVDTKYGHEQMFEGINFAPVLMELYKGIDVSRLSLQYDSGVTSYTNETMQLEDPTNDQSNNITQVHLQKVMPKFLSPGDVVVCETGSFQFSVRDFAFPTQLKYISQGFFLSIGMALPAALGVGIAMQDFPNAHISDENIGEGYKPRLILFEGDGAAQMTIQELSTILKCHITIDIFIWNNNGYTIERAIMGPTRAYNDVMSWKWTKLLEAFGDFDRKHTNSTVIEYPSKLAMKLEELKSSNTRDGIELVEVKLGVLDFPEQLKCMVDAAALKRNKK
notes: full-length ARO10 allele on plasmid pG-SkARO10-kX (pGREG526); expressed in S. cerevisiae CEN.PK 711-7C pdc1 pdc5 pdc6 aro10 thi3 null; cell extract
Turning to B2, the Km in series [2] is 70 ± 5 µM.

(Values after publication PMC4789280, “Characterisation of the broad substrate specificity 2-keto acid decarboxylase Aro10p of Saccharomyces kudriavzevii and its implication in aroma development” (Microbial Cell Factories, 2016).)
